Publication PMC11043418, “Bacillus velezensis iturins inhibit the hemolytic activity of Staphylococcus aureus” (Scientific Reports, 2024)

Biological target: the molecule itself
Assay: SDS-PAGE of deoxycholate-induced oligomers

B1: alpha-hemolysin (natural protein)
chain: ADSDINIKTGTTDIGSNTTVKTGDLVTYDKENGMHKKVFYSFIDDKNHNKKLLVIRTKGTIAGQYRVYSEEGANKSGLAWPSAFKVQLQLPDNEVAQISDYYPRNSIDTKEYMSTLTYGFNGNVTGDDTGKIGGLIGANVSIGHTLKYVQPDFKTILESPTDKKVGWKVIFNNMVNQNWGPYDRDSWNPVYGNQLFMKTRNGSMKAADNFLDPNKASSLLSSGFSPDFATVITMDRKASKQQTNIDVIYERVRDDYQLHWTSTNWKGTNTKDKWTDRSSERYKIDWEKEEMTN
notes: also called α-hemolysin; Hla
stoichiometry N: 7
